Data as given in US20140087995A1 (published 2014).
Numbered stars: 1 amine (or outer) side, 2 acyl side, 3 side chain; on linkers, the order of the positions; unused ones are H or OH. Bridge positions count the residues as written; N and C are the ends. Side chains are listed from the residue outwards. Ends that are not written are not given here. * marks the point of attachment. C20 diacid = O=C(O)CCCCCCCCCCCCCCCCCCC(=O)*; γGlu = O=C(O)[C@H](CCC(=O)[*:2])N[*:1]

T1: human calcitonin receptor (human, UniProt P30988 25-474)
T1 construct: whole, on cells; Membranes prepared from a stably transfected BHK cell line (Assay VII); also called hCTR; hCT
T1 sequence (looked up): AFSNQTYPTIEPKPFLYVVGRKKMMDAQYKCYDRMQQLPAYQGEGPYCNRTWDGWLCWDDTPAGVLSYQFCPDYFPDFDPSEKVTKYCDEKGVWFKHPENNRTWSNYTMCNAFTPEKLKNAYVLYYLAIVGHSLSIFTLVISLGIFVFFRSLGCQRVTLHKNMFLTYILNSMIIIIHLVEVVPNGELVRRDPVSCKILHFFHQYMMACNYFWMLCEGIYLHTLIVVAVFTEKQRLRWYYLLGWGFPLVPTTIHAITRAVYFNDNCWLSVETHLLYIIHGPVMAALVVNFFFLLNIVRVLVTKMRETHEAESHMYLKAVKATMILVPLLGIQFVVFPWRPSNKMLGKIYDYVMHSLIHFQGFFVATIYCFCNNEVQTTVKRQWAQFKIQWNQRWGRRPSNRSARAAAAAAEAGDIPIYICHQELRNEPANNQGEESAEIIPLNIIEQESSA

T2: rat calcitonin receptor (rat, UniProt P32214 25-516)
T2 construct: whole, on cells; Membranes prepared from transiently transfected BHK tk'ts 13 cells (Assay VIII); also called rCTR; rCT
T2 sequence (looked up): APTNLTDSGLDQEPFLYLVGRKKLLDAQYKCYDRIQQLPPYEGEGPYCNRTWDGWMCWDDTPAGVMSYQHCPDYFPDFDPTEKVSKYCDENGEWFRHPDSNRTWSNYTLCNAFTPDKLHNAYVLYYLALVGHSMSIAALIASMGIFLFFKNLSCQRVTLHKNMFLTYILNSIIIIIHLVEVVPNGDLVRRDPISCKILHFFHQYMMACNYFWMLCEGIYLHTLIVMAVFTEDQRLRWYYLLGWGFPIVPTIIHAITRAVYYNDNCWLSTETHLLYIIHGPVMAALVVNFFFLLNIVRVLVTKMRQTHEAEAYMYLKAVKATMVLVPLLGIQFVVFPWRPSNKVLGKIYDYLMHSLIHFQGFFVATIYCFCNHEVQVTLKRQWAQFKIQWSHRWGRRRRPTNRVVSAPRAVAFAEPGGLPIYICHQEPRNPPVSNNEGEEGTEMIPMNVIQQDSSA

T3: rat amylin receptor (rat calcitonin receptor + rat RAMP 3) (rat, UniProt P32214 25-516; Q9JJ73 23-147)
T3 construct: whole, on cells; Membranes prepared from transiently transfected BHK tk'ts 13 cells (Assay VI); also called rAmylin-R; rAmylin
T3 sequence (looked up) 1: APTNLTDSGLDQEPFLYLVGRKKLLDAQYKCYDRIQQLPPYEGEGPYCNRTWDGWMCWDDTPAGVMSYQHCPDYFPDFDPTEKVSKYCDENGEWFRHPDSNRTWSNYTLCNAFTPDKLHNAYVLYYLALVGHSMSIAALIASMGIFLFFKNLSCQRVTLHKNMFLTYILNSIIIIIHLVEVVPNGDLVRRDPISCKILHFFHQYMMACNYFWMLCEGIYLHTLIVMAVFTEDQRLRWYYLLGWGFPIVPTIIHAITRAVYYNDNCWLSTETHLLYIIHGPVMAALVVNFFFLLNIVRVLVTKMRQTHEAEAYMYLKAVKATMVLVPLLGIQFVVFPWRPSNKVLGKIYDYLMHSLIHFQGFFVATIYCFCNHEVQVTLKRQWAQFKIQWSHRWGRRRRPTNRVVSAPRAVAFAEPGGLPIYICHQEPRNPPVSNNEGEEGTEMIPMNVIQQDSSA
T3 sequence (looked up) 2: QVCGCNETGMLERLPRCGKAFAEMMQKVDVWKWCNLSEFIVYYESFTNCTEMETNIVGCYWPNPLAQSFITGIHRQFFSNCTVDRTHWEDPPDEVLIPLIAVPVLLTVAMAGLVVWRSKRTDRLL


Key:
[1] = target: T1, human calcitonin receptor; experiment: ratio of binding IC50s: human calcitonin receptor / human amylin receptor (reference)
Method in brief: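 Competition binding by SPA uses membrane preparations (35 ng/μL final) in pH 7.4 Hepes buffer with 1 mM CaCl2 and 5 mM MgCl₂. Incubation lasts 120 min at 25° C, and IC₅₀ comes from one-site fitting.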

[2] = target: T2, rat calcitonin receptor; experiment: SPA competition vs 125I-calcitonin, membranes of BHK cells with rat calcitonin receptor (Assay VIII)
[3] = target: T2, rat calcitonin receptor; experiment: ratio of binding IC50s: rat calcitonin receptor / rat amylin receptor (reference)
[4] = target: T3, rat amylin receptor (rat calcitonin …); experiment: SPA competition vs 125I-rat amylin, membranes of BHK cells with rat calcitonin receptor + rat RAMP3 (Assay VI)

Row | Binder | Ratio hCT/hAmylin binding [1] | IC50 [2] [nM] | Ratio rCT/rAmylin binding [3] | IC50 [4] [nM]
1 | K([γGlu-C20 diacid])CNTATCATQRLAAFLRHSSPNFGAIPSSTNVGHNTY-NH2 (disulfide 2-7; N-terminus assumed; SMILES CC[C@H](C)[C@H](NC(=O)[C@H](C)NC(=O)CNC(=O)[C@H](Cc1ccccc1)NC(=O)[C@H](CC(N)=O)NC(=O)[C@@H]1CCCN1C(=O)[C@H](CO)NC(=O)[C@H](CO)NC(=O)[C@H](Cc1c[nH]cn1)NC(=O)[C@H](CCCNC(=N)N)NC(=O)[C@H](CC(C)C)NC(=O)[C@H](Cc1ccccc1)NC(=O)[C@H](C)NC(=O)[C@H](C)NC(=O)[C@H](CC(C)C)NC(=O)[C@H](CCCNC(=N)N)NC(=O)[C@H](CCC(N)=O)NC(=O)[C@@H](NC(=O)[C@H](C)NC(=O)[C@@H]1CSSC[C@H](NC(=O)[C@@H](N)CCCCNC(=O)CC[C@H](NC(=O)CCCCCCCCCCCCCCCCCCC(=O)O)C(=O)O)C(=O)N[C@@H](CC(N)=O)C(=O)N[C@@H]([C@@H](C)O)C(=O)N[C@@H](C)C(=O)N[C@@H]([C@@H](C)O)C(=O)N1)[C@@H](C)O)C(=O)N1CCC[C@H]1C(=O)N[C@@H](CO)C(=O)N[C@@H](CO)C(=O)N[C@H](C(=O)N[C@@H](CC(N)=O)C(=O)N[C@H](C(=O)NCC(=O)N[C@@H](Cc1c[nH]cn1)C(=O)N[C@@H](CC(N)=O)C(=O)N[C@H](C(=O)N[C@@H](Cc1ccc(O)cc1)C(N)=O)[C@@H](C)O)C(C)C)[C@@H](C)O, Analogue of human amylin; also called compound 93) | 101 | 131 | 83.2 | 1.58
2 | K([γGlu-C20 diacid])CNTATCATQRLANFLRHSSPNFGAIPSSTNVGRNTY-NH2 (disulfide 2-7; N-terminus assumed; SMILES CC[C@H](C)[C@H](NC(=O)[C@H](C)NC(=O)CNC(=O)[C@H](Cc1ccccc1)NC(=O)[C@H](CC(N)=O)NC(=O)[C@@H]1CCCN1C(=O)[C@H](CO)NC(=O)[C@H](CO)NC(=O)[C@H](Cc1c[nH]cn1)NC(=O)[C@H](CCCNC(=N)N)NC(=O)[C@H](CC(C)C)NC(=O)[C@H](Cc1ccccc1)NC(=O)[C@H](CC(N)=O)NC(=O)[C@H](C)NC(=O)[C@H](CC(C)C)NC(=O)[C@H](CCCNC(=N)N)NC(=O)[C@H](CCC(N)=O)NC(=O)[C@@H](NC(=O)[C@H](C)NC(=O)[C@@H]1CSSC[C@H](NC(=O)[C@@H](N)CCCCNC(=O)CC[C@H](NC(=O)CCCCCCCCCCCCCCCCCCC(=O)O)C(=O)O)C(=O)N[C@@H](CC(N)=O)C(=O)N[C@@H]([C@@H](C)O)C(=O)N[C@@H](C)C(=O)N[C@@H]([C@@H](C)O)C(=O)N1)[C@@H](C)O)C(=O)N1CCC[C@H]1C(=O)N[C@@H](CO)C(=O)N[C@@H](CO)C(=O)N[C@H](C(=O)N[C@@H](CC(N)=O)C(=O)N[C@H](C(=O)NCC(=O)N[C@@H](CCCNC(=N)N)C(=O)N[C@@H](CC(N)=O)C(=O)N[C@H](C(=O)N[C@@H](Cc1ccc(O)cc1)C(N)=O)[C@@H](C)O)C(C)C)[C@@H](C)O, Analogue of human amylin; also called compound 79) [N^ε1-[(4S)-4-carboxy-4-(19-carboxynonadecanoylamino)butanoyl]-[Arg17,Pro21,Pro27,Arg34]-h-amylin] | 46.1 | 35.5 | 21.5 | 1.65
3 | K([γGlu-C20 diacid])CNTATCATQRLARFLRHSSPNFGAIPSSTNVGPNTY-NH2 (disulfide 2-7; N-terminus assumed; SMILES CC[C@H](C)[C@H](NC(=O)[C@H](C)NC(=O)CNC(=O)[C@H](Cc1ccccc1)NC(=O)[C@H](CC(N)=O)NC(=O)[C@@H]1CCCN1C(=O)[C@H](CO)NC(=O)[C@H](CO)NC(=O)[C@H](Cc1c[nH]cn1)NC(=O)[C@H](CCCNC(=N)N)NC(=O)[C@H](CC(C)C)NC(=O)[C@H](Cc1ccccc1)NC(=O)[C@H](CCCNC(=N)N)NC(=O)[C@H](C)NC(=O)[C@H](CC(C)C)NC(=O)[C@H](CCCNC(=N)N)NC(=O)[C@H](CCC(N)=O)NC(=O)[C@@H](NC(=O)[C@H](C)NC(=O)[C@@H]1CSSC[C@H](NC(=O)[C@@H](N)CCCCNC(=O)CC[C@H](NC(=O)CCCCCCCCCCCCCCCCCCC(=O)O)C(=O)O)C(=O)N[C@@H](CC(N)=O)C(=O)N[C@@H]([C@@H](C)O)C(=O)N[C@@H](C)C(=O)N[C@@H]([C@@H](C)O)C(=O)N1)[C@@H](C)O)C(=O)N1CCC[C@H]1C(=O)N[C@@H](CO)C(=O)N[C@@H](CO)C(=O)N[C@H](C(=O)N[C@@H](CC(N)=O)C(=O)N[C@H](C(=O)NCC(=O)N1CCC[C@H]1C(=O)N[C@@H](CC(N)=O)C(=O)N[C@H](C(=O)N[C@@H](Cc1ccc(O)cc1)C(N)=O)[C@@H](C)O)C(C)C)[C@@H](C)O, Analogue of human amylin; also called compound 65) | 82.4 | 108 | 93.2 | 1.16
4 | K([γGlu-C20 diacid])CNTATCATQRLARFLRHSSPNFGAIPSSTPVGSNTY-NH2 (disulfide 2-7; N-terminus assumed; SMILES CC[C@H](C)[C@H](NC(=O)[C@H](C)NC(=O)CNC(=O)[C@H](Cc1ccccc1)NC(=O)[C@H](CC(N)=O)NC(=O)[C@@H]1CCCN1C(=O)[C@H](CO)NC(=O)[C@H](CO)NC(=O)[C@H](Cc1c[nH]cn1)NC(=O)[C@H](CCCNC(=N)N)NC(=O)[C@H](CC(C)C)NC(=O)[C@H](Cc1ccccc1)NC(=O)[C@H](CCCNC(=N)N)NC(=O)[C@H](C)NC(=O)[C@H](CC(C)C)NC(=O)[C@H](CCCNC(=N)N)NC(=O)[C@H](CCC(N)=O)NC(=O)[C@@H](NC(=O)[C@H](C)NC(=O)[C@@H]1CSSC[C@H](NC(=O)[C@@H](N)CCCCNC(=O)CC[C@H](NC(=O)CCCCCCCCCCCCCCCCCCC(=O)O)C(=O)O)C(=O)N[C@@H](CC(N)=O)C(=O)N[C@@H]([C@@H](C)O)C(=O)N[C@@H](C)C(=O)N[C@@H]([C@@H](C)O)C(=O)N1)[C@@H](C)O)C(=O)N1CCC[C@H]1C(=O)N[C@@H](CO)C(=O)N[C@@H](CO)C(=O)N[C@H](C(=O)N1CCC[C@H]1C(=O)N[C@H](C(=O)NCC(=O)N[C@@H](CO)C(=O)N[C@@H](CC(N)=O)C(=O)N[C@H](C(=O)N[C@@H](Cc1ccc(O)cc1)C(N)=O)[C@@H](C)O)C(C)C)[C@@H](C)O, Analogue of human amylin; also called compound 63) | 157 | 124 | 35.6 | 3.48
5 | K([γGlu-C20 diacid])CNTATCATQRLARFLRHSSPNFGAIPSSTNVGSNTY-NH2 (disulfide 2-7; N-terminus assumed; SMILES CC[C@H](C)[C@H](NC(=O)[C@H](C)NC(=O)CNC(=O)[C@H](Cc1ccccc1)NC(=O)[C@H](CC(N)=O)NC(=O)[C@@H]1CCCN1C(=O)[C@H](CO)NC(=O)[C@H](CO)NC(=O)[C@H](Cc1c[nH]cn1)NC(=O)[C@H](CCCNC(=N)N)NC(=O)[C@H](CC(C)C)NC(=O)[C@H](Cc1ccccc1)NC(=O)[C@H](CCCNC(=N)N)NC(=O)[C@H](C)NC(=O)[C@H](CC(C)C)NC(=O)[C@H](CCCNC(=N)N)NC(=O)[C@H](CCC(N)=O)NC(=O)[C@@H](NC(=O)[C@H](C)NC(=O)[C@@H]1CSSC[C@H](NC(=O)[C@@H](N)CCCCNC(=O)CC[C@H](NC(=O)CCCCCCCCCCCCCCCCCCC(=O)O)C(=O)O)C(=O)N[C@@H](CC(N)=O)C(=O)N[C@@H]([C@@H](C)O)C(=O)N[C@@H](C)C(=O)N[C@@H]([C@@H](C)O)C(=O)N1)[C@@H](C)O)C(=O)N1CCC[C@H]1C(=O)N[C@@H](CO)C(=O)N[C@@H](CO)C(=O)N[C@H](C(=O)N[C@@H](CC(N)=O)C(=O)N[C@H](C(=O)NCC(=O)N[C@@H](CO)C(=O)N[C@@H](CC(N)=O)C(=O)N[C@H](C(=O)N[C@@H](Cc1ccc(O)cc1)C(N)=O)[C@@H](C)O)C(C)C)[C@@H](C)O, Analogue of human amylin; also called compound 83) [N^ε1-[(4S)-4-carboxy-4-(19-carboxynonadecanoylamino)butanoyl]-[Arg14,Arg17,Pro21,Pro27]-h-amylin] | 146 | 140 | 49.7 | 2.83
